Target: SSB C-terminal peptide (SSB-Ct peptide) (E. coli)
Experiment: ITC

Sequence of PriA DNA helicase (P17888 whole entry): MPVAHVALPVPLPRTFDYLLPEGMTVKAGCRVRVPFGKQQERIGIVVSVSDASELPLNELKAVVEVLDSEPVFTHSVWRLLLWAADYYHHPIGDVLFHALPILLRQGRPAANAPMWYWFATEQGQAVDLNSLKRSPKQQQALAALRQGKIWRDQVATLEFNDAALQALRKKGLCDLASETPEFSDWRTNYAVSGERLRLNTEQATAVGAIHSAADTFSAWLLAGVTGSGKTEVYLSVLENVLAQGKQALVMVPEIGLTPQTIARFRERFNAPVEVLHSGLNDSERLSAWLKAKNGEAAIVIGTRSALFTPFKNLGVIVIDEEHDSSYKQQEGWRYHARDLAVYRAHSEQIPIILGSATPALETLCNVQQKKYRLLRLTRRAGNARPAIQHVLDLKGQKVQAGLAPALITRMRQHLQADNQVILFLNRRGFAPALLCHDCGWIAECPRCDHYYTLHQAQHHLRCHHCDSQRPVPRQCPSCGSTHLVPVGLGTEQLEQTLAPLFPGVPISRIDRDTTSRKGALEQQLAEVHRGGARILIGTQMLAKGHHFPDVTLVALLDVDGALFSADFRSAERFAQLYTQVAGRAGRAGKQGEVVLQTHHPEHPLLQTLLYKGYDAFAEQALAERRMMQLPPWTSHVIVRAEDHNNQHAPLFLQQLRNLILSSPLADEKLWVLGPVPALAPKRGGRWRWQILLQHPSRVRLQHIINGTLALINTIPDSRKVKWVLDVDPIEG
Sequence of χ subunit of the DNA polymerase III holoenzyme (P28905 whole entry): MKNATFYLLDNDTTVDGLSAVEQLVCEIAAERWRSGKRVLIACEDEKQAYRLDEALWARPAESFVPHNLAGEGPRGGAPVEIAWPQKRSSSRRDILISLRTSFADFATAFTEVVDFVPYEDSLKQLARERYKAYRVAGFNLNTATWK

PriA DNA helicase (from UniProt P17888 1-732) (enzyme)
Ka: 1.8e+06 M⁻¹
dH: -6.9 kcal/mol

χ subunit of the DNA polymerase III holoenzyme (from UniProt P28905 1-147) (natural protein)
dH: -8.6 kcal/mol

Source: article PMC2583361
